Experimental findings from publication PMC6053506 are described below.

Test [1] has as its target AQP4-IgG (rAb-53) with the Fc mutation N297D (human). Briefly: BLI; Octet K2, 30°C; antibody (6 µg/ml) loaded on anti-human Fab-CH1 biosensors; mouse FcRn-b2m in solution; PBS pH 7.2 for dilution, association and dissociation.
Test [2] has as its target AQP4-IgG (rAb-53) with the Fc mutation K322A (human). The description is as above.
In test [3] the target is AQP4-IgG (rAb-53) with the Fc mutation P331G (human). Described as above.
Test [4] has as its target human monoclonal AQP4-IgG (rAb-53), wild type (human). Briefly: BLI; Octet K2, 30°C; antibody (6 µg/ml) loaded on anti-human Fab-CH1 biosensors; mouse FcRn-b2m in solution, 2,000 to 0 nM; 100 mM sodium phosphate, 150 mM NaCl, 0.05% Tween-20, pH 6; 60 s association, 60 s dissociation. A general note: BLI is a label-free optical method that tracks binding on a fibre tip over time.

Test [5] deals with AQP4-IgG (rAb-53) with the Fc mutation D270A (human). Described as above.
In test [6] the target is AQP4-IgG (rAb-53) with the Fc mutation N297D (human). The description is as above.
Test [7] has as its target isotype control antibody directed against measles virus (2B4-IgG) (human). The description is as above.
Test [8] concerns the target AQP4-IgG (rAb-53) with the Fc mutation P329A (human). The description is as above.
The target in test [9] is AQP4-IgG (rAb-53) with the Fc mutation K322A (human). Described as above.
Test [10] has as its target AQP4-IgG (rAb-53) with the Fc mutation P331G (human). The test is described as above.

Chain of AQP4-IgG (rAb-53) with the Fc mutation N297D (human) (heavy, as listed by the source, chain 1 of 2): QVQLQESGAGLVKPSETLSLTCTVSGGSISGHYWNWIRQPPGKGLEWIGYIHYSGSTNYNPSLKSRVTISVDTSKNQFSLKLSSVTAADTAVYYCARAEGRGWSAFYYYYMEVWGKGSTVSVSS
Chain of AQP4-IgG (rAb-53) with the Fc mutation N297D (human) (light, as listed by the source, chain 2 of 2): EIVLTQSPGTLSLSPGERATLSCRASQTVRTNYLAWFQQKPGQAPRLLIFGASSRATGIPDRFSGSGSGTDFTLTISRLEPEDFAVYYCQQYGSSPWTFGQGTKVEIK
Chain of AQP4-IgG (rAb-53) with the Fc mutation P331G (human) (heavy, as listed by the source, chain 1 of 2): as the sequence (heavy, as listed by the source, chain 1 of 2) above
Chain of AQP4-IgG (rAb-53) with the Fc mutation P331G (human) (light, as listed by the source, chain 2 of 2): as the sequence (light, as listed by the source, chain 2 of 2) above
Chain of AQP4-IgG (rAb-53) with the Fc mutation K322A (human) (heavy, as listed by the source, chain 1 of 2): as the sequence (heavy, as listed by the source, chain 1 of 2) above
Chain of AQP4-IgG (rAb-53) with the Fc mutation K322A (human) (light, as listed by the source, chain 2 of 2): as the sequence (light, as listed by the source, chain 2 of 2) above
Chain of AQP4-IgG (rAb-53) with the Fc mutation P329A (human) (heavy, as listed by the source, chain 1 of 2): as the sequence (heavy, as listed by the source, chain 1 of 2) above
Chain of AQP4-IgG (rAb-53) with the Fc mutation P329A (human) (light, as listed by the source, chain 2 of 2): as the sequence (light, as listed by the source, chain 2 of 2) above
Chain of AQP4-IgG (rAb-53) with the Fc mutation D270A (human) (heavy, as listed by the source, chain 1 of 2): as the sequence (heavy, as listed by the source, chain 1 of 2) above
Chain of AQP4-IgG (rAb-53) with the Fc mutation D270A (human) (light, as listed by the source, chain 2 of 2): as the sequence (light, as listed by the source, chain 2 of 2) above
Chain of human monoclonal AQP4-IgG (rAb-53), wild type (human) (heavy, as listed by the source, chain 1 of 2): as the sequence (heavy, as listed by the source, chain 1 of 2) above
Chain of human monoclonal AQP4-IgG (rAb-53), wild type (human) (light, as listed by the source, chain 2 of 2): as the sequence (light, as listed by the source, chain 2 of 2) above

Consider “mouse FcRn-Beta-2 microglobulin heterodimer protein (from UniProt Q61559 22-297; P01887 21-119) (complex)”, for which the Req in test [1] came to 0.136; in [2], 0.198; in test [3], 0.151; in test [4], 0.851; in [5], 0.43; in [6], 1. In addition, the Req in [7] was found to be 0.76; in test [8] it was 1.16; in [9] it was 0.987; in test [10], 0.915.
